{
  "source": "paper PMC6176637",
  "about": "(Proceedings of the National Academy of Sciences of the …, 2018)",
  "proteins": {"B1": {"name": "full-length hemagglutinin (HA) from A/duck/Alberta/35/76(H1N1) virus (natural protein)", "chain 1": "not shown", "chain 2": "not shown"}},
  "biological_target": "the molecule itself",
  "experiment": "cryo-EM structure",
  "data": [
    {"protein": "B1", "values": [
      {"measurement": "stoichiometry N", "result": 3}
    ]}
  ]
}
